The assay has as its system transplanted liver cancer H22. Kind of assay: Example 13: different administration orders of interferon and gemcitabine, transplanted liver cancer H22 in mice. It counts as in vivo, BALB/c mice. The following applies: PEG-mIFN-α4 only, 1 microgram per mouse s.c. once a week. The procedure: PEG-mIFN-α4 was administered by subcutaneous injection on the back of the neck, with a dose of 1 microgram per mouse. The administration began on the day after grouping. In the PEG-mIFN-α4 only group, PEG-mIFN-α4 was administered once a week. In the PEG-mIFN-α4 combined with gemcitabine (administered at the same time) group, PEG-mIFN-α4 and gemcitabine were administered on the same day, once a week. In the PEG-mIFN-α4 combined with gemcitabine (PEG-mIFN-α4 was administered 72 hours after gemcitabine) group, gemcitabine was given 3 days before PEG-mIFN-α4, once a week. PEG-mIFN-α4 combined with gemcitabine (gemcitabine was given 72 hours after PEG-mIFN-α4) group, PEG-mIFN-α4 was given first, and gemcitabine was given 3 days after, once a week. In the normal saline control group, an equal volume of normal saline was given. Gemcitabine was injected intraperitoneally at a dose of 60 mg/kg.
SAS 9.4 software was used to compare the differences in tumor incidence between groups, and the statistical tests were all two-sided tests.
The tumor incidence of each group was calculated based on the tumor volume greater than or equal to 62.5 mm^, which is determined as positive for tumor occurrence. […] Mice determined to be negative for tumor development were confirmed by dissection, and no solid tumor was found in the axilla. […]

B1: PEG-mIFN-α4: deglycosylated recombinant mouse interferon α4 modified with 40 kD Y-type polyethylene glycol succinimide ester (YPEG-NHS); SEQ ID NO: 6 (protein)
chain: CDLPHTYNLGNKRALTVLEEMRRLPPLSCLKDRKDFGFPLEKVDNQQIQKAQAILVLRDLTQQILNLFTSKDLSATWNATLLDSFCNDLHQQLNDLKACVMQEPPLTQEDSLLAVRTYFHRITVYLRKKKHSLCAWEVIRAEVWRALSSSTNLLARLSEEKE
modifications: 40 kD Y-type PEG; deglycosylated; peginterferon murine alpha 4
Turning to B1, the “Median survival period (time after tumor inoculation, day)” value (by day 151) was 38.0 days. The molecule further yielded a tumor incidence (day 151 after tumor inoculation, tumor volume ≥62.5 positive) of 100.0%.

Values taken from patent US20250268984A1, “INTERFERON-BASED CANCER TREATMENT METHOD, AND PHARMACEUTICAL COMBINATION” (XIAMEN AMOYTOP BIOTECH CO., LTD., priority 2021, published 2025).
